± gives the uncertainty stated by the source.
B1: Chromodomain-helicase-DNA-binding protein 4, residues 365 to 417; numbered along this chain, Q14839 (parent)
chain: YETDHQDYCEVCQQGGEIILCDTCPRAYHMVCLDPDMEKAPEGKWSCPHCEKE
B2: Transcription elongation factor A N-terminal and central domain-containing protein, residues 30 to 77; numbered along this chain, Q8N8B7 (parent)
chain: LTELETIYVTKEHLQETDVVRAVYRVLKNCPSVALKKKAKCLLSKWKA

Variants of: B1
Assay: abundance fitness (aPCA) (normalised: wild type 0, dead -1); higher = more abundant; growth selection in yeast, the domain comes from the species named
Conditions: Homo sapiens

Going from Y1L to Y1A, the abundance fitness rises from -0.316 ± 0.31 to 0.534 ± 0.26.

Y1N and Y1F are within error of each other in abundance fitness: -0.028 ± 0.25 for the first, 0.069 ± 0.47 for the second.

Y1M and Y1K are within error of each other in abundance fitness: 0.64 ± 0.43 for the first, 0.593 ± 0.38 for the second.

Y1C and Y1S are within error of each other in abundance fitness: 0.19 ± 0.22 for the first, 0.108 ± 0.35 for the second.

Compared with Y1W, Y1D is lower in abundance fitness: 0.441 ± 0.17 for the first, -0.863 ± 0.28 for the second.

Y1R and E2C are within error of each other in abundance fitness: 0.048 ± 0.45 for the first, 0.484 ± 0.24 for the second.

E2D and E2P are within error of each other in abundance fitness: 0.033 ± 0.15 for the first, 0.263 ± 0.2 for the second.

E2Q and E2W are within error of each other in abundance fitness: 0.654 ± 0.23 for the first, 0.297 ± 0.2 for the second.

E2T and E2R are within error of each other in abundance fitness: 0.349 ± 0.23 for the first, 0.406 ± 0.15 for the second.

E2L and E2S are within error of each other in abundance fitness: 0.386 ± 0.13 for the first, 0.425 ± 0.16 for the second.

E2Y and E2H are within error of each other in abundance fitness: 0.426 ± 0.18 for the first, 0.347 ± 0.29 for the second.

E2K and E2A are within error of each other in abundance fitness: 0.077 ± 0.29 for the first, -0.143 ± 0.12 for the second.

Compared with E2G, E2M is higher in abundance fitness: 0.102 ± 0.1 for the first, 0.621 ± 0.28 for the second.

For E2I, the abundance fitness was 0.176 ± 0.2.

Variants of: B2
Assay: as above
Conditions: Homo sapiens

LTELETIYVTKEHLQETDVVRAVYRVLKNCPSVALKKKAKCLLSKWNA [K47N] and LTELETIYVTKEHLQETDVVRAVYRVLKNCPSVALKKKAKCLLSKWRA [K47R] are within error of each other in abundance fitness: -0.625 ± 0.22 for the first, -0.431 ± 0.11 for the second.

LTELETIYVTKEHLQETDVVRAVYRVLKNCPSVALKKKAKCLLSKWAA [K47A] and LTELETIYVTKEHLQETDVVRAVYRVLKNCPSVALKKKAKCLLSKWQA [K47Q] are within error of each other in abundance fitness: -0.739 ± 0.17 for the first, -0.46 ± 0.2 for the second.

Compared with LTELETIYVTKEHLQETDVVRAVYRVLKNCPSVALKKKAKCLLSKWEA [K47E], LTELETIYVTKEHLQETDVVRAVYRVLKNCPSVALKKKAKCLLSKWIA [K47I] is higher in abundance fitness: -1.08 ± 0.35 for the first, -0.47 ± 0.23 for the second.

LTELETIYVTKEHLQETDVVRAVYRVLKNCPSVALKKKAKCLLSKWTA [K47T] and LTELETIYVTKEHLQETDVVRAVYRVLKNCPSVALKKKAKCLLSKWPA [K47P] are within error of each other in abundance fitness: -0.351 ± 0.22 for the first, -0.334 ± 0.27 for the second.

Going from LTELETIYVTKEHLQETDVVRAVYRVLKNCPSVALKKKAKCLLSKWSA [K47S] to LTELETIYVTKEHLQETDVVRAVYRVLKNCPSVALKKKAKCLLSKWVA [K47V], the abundance fitness rises from -0.967 ± 0.19 to 0.019 ± 0.099.

First: LTELETIYVTKEHLQETDVVRAVYRVLKNCPSVALKKKAKCLLSKWDA [K47D]
Second: LTELETIYVTKEHLQETDVVRAVYRVLKNCPSVALKKKAKCLLSKWFA [K47F]
The abundance fitness of the first is lower: -0.762 ± 0.2 for the first, 0.101 ± 0.44 for the second.

LTELETIYVTKEHLQETDVVRAVYRVLKNCPSVALKKKAKCLLSKWLA [K47L] and LTELETIYVTKEHLQETDVVRAVYRVLKNCPSVALKKKAKCLLSKWMA [K47M] are within error of each other in abundance fitness: -0.508 ± 0.13 for the first, -0.252 ± 0.14 for the second.

First: LTELETIYVTKEHLQETDVVRAVYRVLKNCPSVALKKKAKCLLSKWWA [K47W]
Second: LTELETIYVTKEHLQETDVVRAVYRVLKNCPSVALKKKAKCLLSKWGA [K47G]
The abundance fitness of the first is higher: 0.025 ± 0.13 for the first, -0.605 ± 0.12 for the second.

LTELETIYVTKEHLQETDVVRAVYRVLKNCPSVALKKKAKCLLSKWHA [K47H] and LTELETIYVTKEHLQETDVVRAVYRVLKNCPSVALKKKAKCLLSKYKA [W46Y] are within error of each other in abundance fitness: -0.268 ± 0.16 for the first, -0.504 ± 0.18 for the second.

LTELETIYVTKEHLQETDVVRAVYRVLKNCPSVALKKKAKCLLSKDKA [W46D] and LTELETIYVTKEHLQETDVVRAVYRVLKNCPSVALKKKAKCLLSKRKA [W46R] are within error of each other in abundance fitness: -1.05 ± 0.21 for the first, -0.758 ± 0.12 for the second.

LTELETIYVTKEHLQETDVVRAVYRVLKNCPSVALKKKAKCLLSKEKA [W46E] and LTELETIYVTKEHLQETDVVRAVYRVLKNCPSVALKKKAKCLLSKPKA [W46P] are within error of each other in abundance fitness: -1.03 ± 0.22 for the first, -0.765 ± 0.23 for the second.

First: LTELETIYVTKEHLQETDVVRAVYRVLKNCPSVALKKKAKCLLSKIKA [W46I]
Second: LTELETIYVTKEHLQETDVVRAVYRVLKNCPSVALKKKAKCLLSKTKA [W46T]
The abundance fitness of the first is higher: 0.258 ± 0.17 for the first, -0.705 ± 0.18 for the second.

First: LTELETIYVTKEHLQETDVVRAVYRVLKNCPSVALKKKAKCLLSKVKA [W46V]
Second: LTELETIYVTKEHLQETDVVRAVYRVLKNCPSVALKKKAKCLLSKSKA [W46S]
The abundance fitness of the first is higher: -0.035 ± 0.094 for the first, -0.96 ± 0.14 for the second.

LTELETIYVTKEHLQETDVVRAVYRVLKNCPSVALKKKAKCLLSKQKA [W46Q] and LTELETIYVTKEHLQETDVVRAVYRVLKNCPSVALKKKAKCLLSKNKA [W46N] are within error of each other in abundance fitness: -0.792 ± 0.23 for the first, -0.823 ± 0.34 for the second.

LTELETIYVTKEHLQETDVVRAVYRVLKNCPSVALKKKAKCLLSKAKA [W46A] and LTELETIYVTKEHLQETDVVRAVYRVLKNCPSVALKKKAKCLLSKLKA [W46L] are within error of each other in abundance fitness: 0.105 ± 0.097 for the first, 0.022 ± 0.079 for the second.

Compared with LTELETIYVTKEHLQETDVVRAVYRVLKNCPSVALKKKAKCLLSKCKA [W46C], LTELETIYVTKEHLQETDVVRAVYRVLKNCPSVALKKKAKCLLSKGKA [W46G] is lower in abundance fitness: -0.313 ± 0.12 for the first, -1.07 ± 0.14 for the second.

LTELETIYVTKEHLQETDVVRAVYRVLKNCPSVALKKKAKCLLSKWKH [A48H] and LTELETIYVTKEHLQETDVVRAVYRVLKNCPSVALKKKAKCLLSKWKR [A48R] are within error of each other in abundance fitness: -0.331 ± 0.23 for the first, 0.034 ± 0.37 for the second.

LTELETIYVTKEHLQETDVVRAVYRVLKNCPSVALKKKAKCLLSKWKV [A48V] and LTELETIYVTKEHLQETDVVRAVYRVLKNCPSVALKKKAKCLLSKWKP [A48P] are within error of each other in abundance fitness: -0.62 ± 0.18 for the first, -0.565 ± 0.22 for the second.

First: LTELETIYVTKEHLQETDVVRAVYRVLKNCPSVALKKKAKCLLSKWKL [A48L]
Second: LTELETIYVTKEHLQETDVVRAVYRVLKNCPSVALKKKAKCLLSKWKW [A48W]
The abundance fitness of the first is lower: -1.22 ± 0.37 for the first, -0.469 ± 0.26 for the second.

LTELETIYVTKEHLQETDVVRAVYRVLKNCPSVALKKKAKCLLSKWKT [A48T] and LTELETIYVTKEHLQETDVVRAVYRVLKNCPSVALKKKAKCLLHKWKA [S44H] are within error of each other in abundance fitness: 0.162 ± 0.24 for the first, 0.079 ± 0.25 for the second.

First: LTELETIYVTKEHLQETDVVRAVYRVLKNCPSVALKKKAKCLLWKWKA [S44W]
Second: LTELETIYVTKEHLQETDVVRAVYRVLKNCPSVALKKKAKCLLVKWKA [S44V]
The abundance fitness of the first is higher: -0.237 ± 0.13 for the first, -0.48 ± 0.11 for the second.

LTELETIYVTKEHLQETDVVRAVYRVLKNCPSVALKKKAKCLLYKWKA [S44Y] and LTELETIYVTKEHLQETDVVRAVYRVLKNCPSVALKKKAKCLLGKWKA [S44G] are within error of each other in abundance fitness: -0.398 ± 0.21 for the first, -0.141 ± 0.1 for the second.

Going from LTELETIYVTKEHLQETDVVRAVYRVLKNCPSVALKKKAKCLLNKWKA [S44N] to LTELETIYVTKEHLQETDVVRAVYRVLKNCPSVALKKKAKCLLPKWKA [S44P], the abundance fitness falls from -0.351 ± 0.15 to -0.891 ± 0.14.

LTELETIYVTKEHLQETDVVRAVYRVLKNCPSVALKKKAKCLLKKWKA [S44K] and LTELETIYVTKEHLQETDVVRAVYRVLKNCPSVALKKKAKCLLMKWKA [S44M] are within error of each other in abundance fitness: -0.312 ± 0.21 for the first, -0.148 ± 0.15 for the second.

Compared with LTELETIYVTKEHLQETDVVRAVYRVLKNCPSVALKKKAKCLLRKWKA [S44R], LTELETIYVTKEHLQETDVVRAVYRVLKNCPSVALKKKAKCLLIKWKA [S44I] is lower in abundance fitness: 0.021 ± 0.086 for the first, -0.695 ± 0.28 for the second.

Going from LTELETIYVTKEHLQETDVVRAVYRVLKNCPSVALKKKAKCLLFKWKA [S44F] to LTELETIYVTKEHLQETDVVRAVYRVLKNCPSVALKKKAKCLLSVWKA [K45V], the abundance fitness falls from -0.158 ± 0.13 to -0.918 ± 0.17.

LTELETIYVTKEHLQETDVVRAVYRVLKNCPSVALKKKAKCLLSSWKA [K45S] and LTELETIYVTKEHLQETDVVRAVYRVLKNCPSVALKKKAKCLLSNWKA [K45N] are within error of each other in abundance fitness: -0.55 ± 0.11 for the first, -0.361 ± 0.14 for the second.

Going from LTELETIYVTKEHLQETDVVRAVYRVLKNCPSVALKKKAKCLLSPWKA [K45P] to LTELETIYVTKEHLQETDVVRAVYRVLKNCPSVALKKKAKCLLSRWKA [K45R], the abundance fitness rises from -0.667 ± 0.42 to -0.123 ± 0.11.

LTELETIYVTKEHLQETDVVRAVYRVLKNCPSVALKKKAKCLLSMWKA [K45M] and LTELETIYVTKEHLQETDVVRAVYRVLKNCPSVALKKKAKCLLSEWKA [K45E] are within error of each other in abundance fitness: -0.63 ± 0.18 for the first, -0.748 ± 0.13 for the second.

Compared with LTELETIYVTKEHLQETDVVRAVYRVLKNCPSVALKKKAKCLLSAWKA [K45A], LTELETIYVTKEHLQETDVVRAVYRVLKNCPSVALKKKAKCLLSYWKA [K45Y] is higher in abundance fitness: -0.57 ± 0.11 for the first, -0.1 ± 0.21 for the second.

First: LTELETIYVTKEHLQETDVVRAVYRVLKNCPSVALKKKAKCLLSDWKA [K45D]
Second: LTELETIYVTKEHLQETDVVRAVYRVLKNCPSVALKKKAKCLLSIWKA [K45I]
The abundance fitness of the first is higher: -0.443 ± 0.16 for the first, -1.01 ± 0.4 for the second.

Compared with LTELETIYVTKEHLQETDVVRAVYRVLKNCPSVALKKKAKCLLSGWKA [K45G], LTELETIYVTKEHLQETDVVRAVYRVLKNCPSVALKKKAKCLLSLWKA [K45L] is higher in abundance fitness: -0.894 ± 0.12 for the first, -0.513 ± 0.13 for the second.

LTELETIYVTKEHLQETDVVRAVYRVLKNCPSVALKKKAKCLLSTWKA [K45T] and LTELETIYVTKEHLQETDVVRAVYRVLKNCPSVALKKKAKCLLSCWKA [K45C] are within error of each other in abundance fitness: -0.656 ± 0.18 for the first, -0.352 ± 0.14 for the second.

First: LTELETIYVTKEHLQETDVVRAVYRVLKNCPSVALKKKAKCLLSFWKA [K45F]
Second: LTELETIYVTKEHLQETDVVRAVYRVLKNCPSVALKKKAKCLLSQWKA [K45Q]
The abundance fitness of the first is higher: 0.204 ± 0.27 for the first, -0.782 ± 0.23 for the second.
